Laboratory results as given in the Human Domainome abundance scans (Beltran et al. 2025).
± gives the uncertainty stated by the source.

B1: Triacylglycerol hydrolase DDHD2, residues 389 to 447; numbered along this chain, O94830 (parent)
chain: TLEEDLKKLQLSEFFDIFEKEKVDKEALALCTDRDLQEIGIPLGPRKKILNYFSTRKNS

Variants of: B1
Experiment: abundance fitness (aPCA) (normalised: wild type 0, dead -1); higher = more abundant; growth selection in yeast, the domain comes from the species named
Conditions: Homo sapiens

Variant	abundance fitness
R46Q	-0.243 ± 0.12
R46G	-0.107 ± 0.055
R46N	-0.152 ± 0.11
R46V	-0.52 ± 0.068
R46Y	-0.848 ± 0.17
R46K	-0.338 ± 0.14
R46I	-0.163 ± 0.1
R46L	-0.744 ± 0.088
R46M	-0.431 ± 0.15
R46S	-0.058 ± 0.066
R46W	-1.27 ± 0.17
R46P	-0.628 ± 0.11
R46E	-0.217 ± 0.1
R46D	-0.242 ± 0.098
R46T	-0.224 ± 0.095
R46C	-0.172 ± 0.08
R46A	0.45 ± 0.066
K47H	-0.376 ± 0.11
K47W	-0.368 ± 0.098
K47I	0.193 ± 0.11
K47Y	-0.524 ± 0.18
K47L	-0.087 ± 0.071
K47A	0.296 ± 0.067
K47Q	0.492 ± 0.1

Variant	abundance fitness
K47P	-0.627 ± 0.12
K47R	-0.065 ± 0.064
K47G	0.101 ± 0.061
K47S	0.225 ± 0.069
K47M	0.58 ± 0.11
K47C	0.136 ± 0.081
K47F	-0.772 ± 0.16
K47N	0.254 ± 0.1
L43Y	0.473 ± 0.053
L43V	0.48 ± 0.053
L43N	0.295 ± 0.055
L43Q	0.621 ± 0.081
L43R	0.512 ± 0.053
L43T	0.543 ± 0.054
L43W	0.16 ± 0.082
L43S	0.617 ± 0.048
Y52N	0.151 ± 0.12
Y52S	-0.15 ± 0.072
Y52R	-0.237 ± 0.059
Y52L	-0.354 ± 0.073
Y52F	0.172 ± 0.16
Y52A	-0.08 ± 0.077
Y52G	-0.34 ± 0.067
Y52M	-0.21 ± 0.082

Variant	abundance fitness
Y52I	-0.387 ± 0.2
Y52V	-0.26 ± 0.066
Y52W	-0.089 ± 0.075
Y52Q	0.123 ± 0.12
Y52T	-0.172 ± 0.11
Y52K	-0.3 ± 0.094
Y52C	-0.459 ± 0.13
Y52E	-0.075 ± 0.084
Y52P	-0.313 ± 0.12
Y52D	-0.088 ± 0.1
Y52H	0.231 ± 0.14
G44Q	0.333 ± 0.069
G44R	-0.056 ± 0.055
G44P	-0.079 ± 0.064
G44E	0.574 ± 0.079
G44C	-0.176 ± 0.055
G44L	0.1 ± 0.049
G44K	0.18 ± 0.072
G44F	-0.151 ± 0.053
G44Y	-0.122 ± 0.054
G44H	0.101 ± 0.059
G44M	0.06 ± 0.069
G44I	0.418 ± 0.052
G44S	0.167 ± 0.048

Variant	abundance fitness
G44N	0.041 ± 0.058
G44W	-0.275 ± 0.07
G44D	0.342 ± 0.058
G44V	0.375 ± 0.049
G44A	0.35 ± 0.054
N51E	0.18 ± 0.094
N51T	0.119 ± 0.079
N51S	0.14 ± 0.065
N51G	0.061 ± 0.07
N51A	0.151 ± 0.073
N51I	-0.93 ± 0.17
N51K	0.044 ± 0.097
N51M	0.084 ± 0.088
N51V	-0.729 ± 0.092
N51R	0.042 ± 0.067
N51Q	0.166 ± 0.1
N51L	-0.185 ± 0.07
N51W	-0.384 ± 0.094
N51C	-0.323 ± 0.096
N51Y	-0.475 ± 0.14
N51H	-0.148 ± 0.12
N51P	-0.37 ± 0.11
N51D	0.209 ± 0.089
L50K	-0.218 ± 0.1

Variant	abundance fitness
L50R	-0.247 ± 0.06
L50H	-0.087 ± 0.14
L50G	-0.291 ± 0.061
L50T	-0.209 ± 0.092
L50N	-0.483 ± 0.17
L50M	-0.209 ± 0.1
L50I	0.096 ± 0.11
L50W	-0.585 ± 0.1
L50Q	-0.345 ± 0.11
L50F	-0.008 ± 0.15
L50D	0.14 ± 0.11
L50A	-0.415 ± 0.089
L50P	-0.401 ± 0.11
L50C	-0.215 ± 0.13
K48I	0.104 ± 0.12
K48W	-0.946 ± 0.13
K48F	-0.457 ± 0.13
K48R	0.088 ± 0.064
K48T	0.374 ± 0.078
K48E	0.036 ± 0.1
K48M	0.146 ± 0.11
K48D	-0.184 ± 0.1
K48G	-0.698 ± 0.079
K48S	-0.075 ± 0.069

Variant	abundance fitness
K48H	-0.213 ± 0.13
K48P	-0.494 ± 0.12
K48A	0.106 ± 0.068
K48V	0.244 ± 0.061
K48N	-0.344 ± 0.11
K48L	-0.007 ± 0.075
K48C	-0.408 ± 0.1
K48Y	-0.566 ± 0.16
I49V	-0.215 ± 0.072
I49R	-0.489 ± 0.076
I49M	-0.09 ± 0.096
I49G	-0.593 ± 0.081
I49C	-0.33 ± 0.097
I49K	-0.467 ± 0.13
I49E	-0.052 ± 0.093
I49F	-0.765 ± 0.16
I49L	-0.077 ± 0.069
I49Q	-0.307 ± 0.11
I49S	-0.046 ± 0.079
I49H	-0.07 ± 0.12
I49N	-0.589 ± 0.14
I49A	-0.244 ± 0.093
I49D	-0.125 ± 0.097
I49P	-0.34 ± 0.11

Variant	abundance fitness
I49T	-0.301 ± 0.1
I49Y	-0.946 ± 0.19
I49W	-0.477 ± 0.11
F53A	-0.282 ± 0.07
F53C	-0.029 ± 0.092
P45E	0.244 ± 0.11
P45C	-0.205 ± 0.085
P45A	0.615 ± 0.067
P45T	-0.031 ± 0.081
P45Q	0.188 ± 0.1
P45F	-0.144 ± 0.072
P45N	-0.274 ± 0.08
P45Y	-0.426 ± 0.084
P45L	-0.496 ± 0.072
P45V	0.411 ± 0.063
P45G	-0.168 ± 0.074
P45M	0.019 ± 0.11
P45K	-0.285 ± 0.12
P45R	-0.716 ± 0.09
P45H	-0.261 ± 0.094
P45S	-0.032 ± 0.068
P45D	0.017 ± 0.076
P45W	-1.26 ± 0.23
